Results on 23 sequences are retold here after the DeepSol protein solubility set.

A short description of the series: soluble on expression in E. coli; label from the status in PepcDB or PDB records.
As for “MAVPGFTFDEALLTEIAASFQLRASNINALTALVQRLSGDFDRSTPQVMNMATGAGKTYVMAAFIEYMRRQGLRNVMIVTPGLVVQTKTVANFTQGSPKFIDGSPVPPRVVTPENYKSNPADQTAFTEQGASNVYVFNVQQLIGPKDMDGDTTSGSKAAVARGVHKFSEYAGVLYDELKNMDDLVVLADEHHLYSAKAKAFHAAIHDLEPAALVGLTASPGEKDETIFTYPLYKAIADKNVKQPVIVYRKDGYGELGEYQQLKDAKTLLETKAGHYAVKNQEEGTSPISPVMLVVCEDIAHATRIEETLVGPDLFGDPYAVLRVDSDSMNEEKAALLDAIDTPDSPVRAVVSVNKLKEGWDCRSIAVMVTLRAMDSDILTQQTLGRGLRLPYGKYAEVEAIDTLDIVAHESFQRLLSSEKVNKSFGFDKRKTSQPAPPQPVHPMDVTPPTPVPTPDLDPVPGGNTTAPTPVLPPADPQPVAPDLDKGTDTRPPLGLKELGGDGASPEDLYPEPTPLAVVELVEKFRDVSFLFPRTTYTAKNAAYPLEKLMQDEIIQVARQITDNPQAVLERLALAGDEAQGRVMAKRLTQGTIDAIALDEDAVKKQLVGAIITHRRVERSPENISQAKNRIAPLIYNNALATTWTVDTLHVASILLGKAIDASVRQFLANLEPDVTLVPLTMPTRTRFELGVGKTIEPRPGEFDKYINGQFYSGWTRNLYTAASFDSNSAEHKLACDLDVSPDVEWWTRLYMADGASIDYQVGKTYYPDFVVRDREGRTWIVEGKDAGGRTNEEVKAKRDAAELALNLMASNEDMGALKVGYIIAYEDTIKEAGSWSRLISMSGAVKSAN”, the “soluble on expression in E. coli” value is “not soluble”.
In the case of “MAVTREDLEQNRLRAALGDSPVASTLLTEAALEASLASTLARLSAAPCEGQDAWVFGYGSLIWNPMIFHTEVARATVRGYHRGFYLYSRINRGTWDNPGLVLGLDRGGSCSGVAFRVPRAHAEREFRVLWRREMLTGAYLPRWLPTEIHGERILALAFVMNRTHEAYAGRLPDERVVGCLHKAVGLYGPAREYLQRTLIGLASNGLHDPYLDRLWQRLQAMDINAANAPSQTADTDGTGPLPDPYLSALEHHHHHH” it was “not soluble”; in that of “MAVVAHTEEDVKLLARLMRAEAEGDGRLGMLMVGNVGVNRVIADCLDFRGIRSIRQMVFQSPGGFEAVQKGYFYQRAREVDIGLARQVLRGWRYHPATNALWFFKPPEGQECPPQWFNQWNVGRYKSHCFFAPTPSDCPRVY”, “not soluble”.
For “MAWLRFFSRTLKSLPQISSSSPNPNPNFRTSPFSTSFLITKTPDKLKKKRKKPESARTKSIQHESTKLPHLESLVSRDAHFRFLIRSKEFISKQPERILRLDDAGKLYRELGFPRGRKVTKFIPKHPLIFQTYRHSDGKIWLGFTEFMEDLLDEEKGLMESMELDRVNCVRKLLMMTKDKRILLSKIHHTRLLFGIPEDFRDRVAKYPDYFRVVTGGDGNRVLELVNWDTNLAHGKELELEEKDTRKLNLLNTFPLVSPYSDGWKLDVWSLEAEKYRVGIVHEFLNLTLEKRASIHHIVEFKDEFSLTRQTYQMLKKQSMSFYLAGTEMNWTVFLKDAYDENGVLVSKDPQVVFNEKLYKYADMQQMEQVG”, the “soluble on expression in E. coli” value was “soluble”.
In the case of “MAYSEKVIDHYENPRNVGKLDAADPNVGTGMVGAPACGDVMRLQIKVNEQGVIEDAKFKTYGCGSAIASSSLATEWMKGKTLDEAETIKNTTIAEELALPPVKIHCSVLAEDAIKAAVRDYKQKKGLL” it was “not soluble”; in that of “MCASFAKFAERWNPLPETLLSWSKNNCDKVQPRPRDMSCEDVVQFVADCNFSGGGPGPGKLADTTNRQVADTFYQRTYENSPRVLPKYIYYNENTARDYGQFGNWYYPNYYPPTYLGFFDGRPASMAQLENDYKFAKGGHYPYNRADNIVNIGLQQTYLPTCLHDLFYCVRASNGQRPQAYLNYKEYRRDRDQAAEQMAQRDQDIKTLRRHRTRHHEDDE”, “not soluble”; in that of “MCASFSPTLDSRSRQLLRTLISCYIQNGEPIGSKTLAQQAGLDISPATIRNILADLEELGLLNSPHTSAGRVPTAHGYRMFVDSLVQMQPPSEDDIRRLRVEMTGGGTQTLLGSASEILSAMTHFVGVVSAPRREQFVFRHIDFVPLDARQIMAILIFADNEVQNRVIEPRRVYEPGELERVSNYLNAHFIGRTLADIRTTVLCELRKAKDEMEQLLAHSLDLASQMLVPNDSEDIVVTGQTRLMALQDLSDMDRLRELFEIFASKREILQLLERTIDAPGVRIFIGEETGMVSMEDISLVTAPYAAHGQVLGVLGVIGPKRMAYDRVIPLVQVVAQVLGTALEPPTMP”, “not soluble”.
Consider “MCENLYGEEYKMEILRLQKMMNNMTCGQMAKPLTMKDFQIHQALGKGAYGNVYRVRSLHDGKDYALKQIMISSKNEGIPQSVLREITVMKHLARKAHPNIISLKSVFHQLDPVRAILKINMIMERCDWDLHTFLRNIPRGVPEQQAKHVTAQIVRALDFLHTHSIIHRDLKPQNILLNRDQTVKLADFGLSKEYSNTTAFTTLVVTLWYRSPEVLLQSYYNSTVDMWALGCIVSEIYCRQPLFVGQNEAEQLTDIFKKMGTPVGKDWPSESVIARDSFPQYRPTNLKDLSPQMSKQAIEFVQQCLRYDHSKRLSARGALSHPFLKPAVATKSRVLKQINFNK”, for which the “soluble on expression in E. coli” value is recorded as “not soluble”.
With “MCIAAWVWQAHPQHQLLLLLNRDEFHSRPTKAVGWWGEGSKKILGGRDVLGGGTWMGCTKDGRLAFLTNVLEPDAMPGARTRGDLPLRFLQSNKSPLEVATEVAKEADEYNGFNLVLADLTTNVMVYVSNRPKGQPATIQLVSPGLHVLSNARLDSPWQKAIRLGKNFREHLRKHGDDEVEAKDIVERLMTDTTKADKDRLPNTGCDPNWEHGLSSIFIEVQTDQGLYGTRSTAVLSVNYDGEASLYEKYLESGIWKDHTVHYQIE”, the “soluble on expression in E. coli” value is “soluble”.
In the case of “MCLDKMTDIRVRGYKSISFWQEEGIGLIVIRSDSHGRFDLNTLGEITAAIGIAAMDGSVRAVALTGMNNIFGRQLVIGQLSNNTVYNVMQSSSSLISMIYTFEKPIFSILNGDAIDEGYEIALLADRIISADDIKVGFSRDYEFKIGGSFTSLRMTKTDISGPAEGINVDRVVKHESLLEDAKNIIKETADINFPMRRRQRYRYISELINAEKINFYEHYLARS” it was “not soluble”; in that of “MCLVQATGGSSTHKLVSAGAEKMIITRPDFVDPPGSKDISITRTARAPKEDKLVIHFCTCRCN”, “not soluble”.
In the case of “MCMMSHNKAFFLSLQHAAVSGVAVCLSVRRGAGSVPAGNRGKKTIITEYRITGTRALARCPTKPVTSMWNSSWTSRLEHHHHHH” it was “not soluble”; in that of “MCMTNSMSDALKTLEVFRPEVEEIDEREVKLSVAPDRVIAVLETLKSLGYSHLSLMTCIDWIEDSQFELVYILFSWKDGGKFIVTTRIDRNNPQFVTVKEIWPVARFYEREIHEFFGVKFSGNEDMKPLFLELWDDKPPLRKDFDPLEYSRRKFPGREYQKDVIDEAKKIFRGEING”, “soluble”.
In the case of “MCNNEAKMSELLSVQSDAPAKKINLMDLTRQQMREFFKELGEKPFRADQLVKWIYHFGEDNFDNMTNINKKLREKLKAVAEIKAPEVAVEQRSADGTIKWAMQVGEQQVETVYIPEADRATLCVSSQVGCALACTFCSTAQQGFNRNLTVSEIIGQVWRASKIIGNFGVTGVRPITNVVMMGMGEPLLNVANVVPAMEIMLDDFAYGLSKRRVTLSTSGVVPALDNLSKMIDVALAISLHAPNDELRDEIVPINKKYNIKTLIDSVNRYLNVSNANHGKVTIEYVMLDHVNDGVEHAHQLAEVLKNTPCKINLIPWNPFPEAPYAKSSNTRIDRFQKTLMEYDFTVIIRKTRGDDIDAACGQLAGDVIDRTKRTAMKRQFGQNIGVTEVN” it was “not soluble”.
Turning to “MCPRTSCRFYPFTIDFGTFRMAIIHAKSMTIPTSKLVAFSDKFLQNLRCFNCAVMDIVKNDATLPLGHLEEYTPGNRIGNWIGPVKGINIPSHLKADFRKSQPLSITRSVREAEWCTPFINCTQYYICINHLFAERIATKLRQVMGHTMISNCVSLLYLTGDFRRSSRFSGPIESANITSNLEEHCWHSIVLDFFDFICINSMRAIIEGKYQCFRRFITKYLMFAFFNWYRISFENSIIMQNHFTCVRTTQMRHVVIPLFTLNKDSSITIKRNRPSNFLIVVALNLICLEHHHHHH”, the “soluble on expression in E. coli” value is on record as “not soluble”.
The same measure for “MCQLDVASIGDIASYRLSPISKLRYLRHTESPKSPKSSIAIPRKRYKRYRQISRMPKNHFWKNGDISYTETHIGDIFNMPYFQISIFPISPSLSAINTTIARHEFSRRQKSQNAYFGQTHILLFTAAYSPFLEHHHHHH”: “soluble”; for “MCTELEPHQRLKKIIDEIGVSQTKLACKYLGRATINKIIRGERPLNAAQAYKFIQRFKDFGYNADIELILGIPTKTIDSTVKKFLSNTKKHYLEFDKLIDKLYKDKAIEVIWNVIEKLDIQDVYKNANIILKYLTKLMQYDLDADIYLKVNIELIKIYTATANYERAITAFNSLKNFSILDRETKVKCFLNVALAYYNLREYKSSIDIASRVMKLKIFDKYYFKASIIKANVLYTDGRINESIKEYEKIAIKAEKYHFIEYVATSESNIGYVFTEQNKFNEAKLHLDEAMKLFDSLNNYYKLNVYDNVFGFKIKNNTADFDTFKKVILLAYDTNDKFRIKNNVKQFVNYAIRNKKSKEIFTKIIDFLNPKGIDLDSSLKLEIMEYVSGNTFESVLKLEHHHHHH”: “not soluble”; for “MDALAIINKYYPEDNELKHILLAHSRSVADKALWIAGKHPELNLDKQFLEEAAMLHDIGIFMTDAEGICCFGSYPYICHGYLGADLMRKEGFPRHALVCERHTGAGMSLQSIIDQQLPVPHRNMVPVSLEEQVICFADKFFSKTHLDREKSVEKALKSISRYGEDGIIRFNHWCECFL”: “soluble”.
The same measure for “MDALNNKLYFIDSTKHKIFVEQIINGMHDWVRVIDINDNIIFVNESMAKALGKNVIGEKCYKAIGKSEPCENCTSRKAVFEGTIQAKEEIIGDRIFSVKSSPIRDENGQITAVVEVLRDITEMKKMQKKILEHNQKLQSELNMARRLQCSLLPKELPQDKIDFSYVYRPCEAIGGDFLDIFKIDDEHIGIYIADVSGHGVPASMLTVFLRSSINKKTLSPAEALNQLYKEFNRDYYDQELYITIFYAIIDTKNKNIIYSNAGHNASPVLFNHESHRFDILRIPGVPISDWVDNPEYTEKSISIEKGDRLFMYTDGIVELRNNKGEQFGEERLLNILLGEKMPPAMTLDRIIEAAMEFANIKNFNKIIDDITMALLEIL”: “soluble”; for “MDANEKKEVIKKKYQEIAILGGSCCSGGCCGDSNSTDLSRSLGYSESDVQAVPDANMGLGCGNPTAFAELKPGDVVLDLGSGGGFDCFLAAQKIGSSGKVIGVDMTLEMVEKAQANARKYGYSNVEFRHGDIESLPVKDSSVDVIISNCVINLAPDKEKVFREAFRVLKPEGRMYISDMVLLDELPEELKNDSELLAGCIAGAVLKEEYLGLLKKAGFSVEILNEDLDISKRQYRDLPVESLKLKARVLEHHHHHH”: “soluble”.
In the case of “MDAVQELERRIVELEIQSALQEDVIAGLNAMVAELRQTLDLQQAQLRLLYQKMQDRNPDAQEPYSLRDEIPPHY” it was “not soluble”; in that of “MDDREDLVYQAKLAEQAERYDEMVESMKKVAGMDVELTVEERNLLSVAYKNVIGARRASWRIISSIEQKEENKGGEDKLKMIREYRQMVETELKLICCDILDVLDKHLIPAANTGESKVFYYKMKGDYHRYLAEFATGNDRKEAAENSLVAYKAASDIAMTELPPTHPIRLGLALNFSVFYYEILNSPDRACRLAKAAFDDAIAELDTLSEESYKDSTLIMQLLRDNLTLWTSDMQGDGEEQNKEALQDVEDENQ”, “soluble”.
Take “MDDSTLTELEAAAFRRLVAHLRERTDVQNIDLMNLAGFCRNCLSNWLKDAADAQGVAMSRDESREAVYGMPYETWKAKYQSTATPDQVEAFKKSHPHSH”: the “soluble on expression in E. coli” value is “not soluble”.
